In patent publication US20040171585:

Target: T1, HNF-4α (UniProt P41235)
T1 sequence: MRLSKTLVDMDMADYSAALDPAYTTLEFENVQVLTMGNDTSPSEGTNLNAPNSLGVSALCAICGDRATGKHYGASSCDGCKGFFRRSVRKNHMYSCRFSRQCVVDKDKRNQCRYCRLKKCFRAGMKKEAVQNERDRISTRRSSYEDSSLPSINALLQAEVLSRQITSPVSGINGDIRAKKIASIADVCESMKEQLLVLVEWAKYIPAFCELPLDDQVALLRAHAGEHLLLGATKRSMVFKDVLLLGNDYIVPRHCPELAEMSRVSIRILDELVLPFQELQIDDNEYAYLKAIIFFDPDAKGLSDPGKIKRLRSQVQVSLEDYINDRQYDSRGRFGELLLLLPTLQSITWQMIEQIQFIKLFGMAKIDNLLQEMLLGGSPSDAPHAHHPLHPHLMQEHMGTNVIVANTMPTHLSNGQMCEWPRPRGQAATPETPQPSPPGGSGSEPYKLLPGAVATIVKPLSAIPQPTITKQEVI
Assay: cell_activity
Details: CAT reporter with TK promoter and one to three C3P copies, COS-7, no added fatty acids

Question: “GCAGGTGACCTTTGCCCAGCGCC (double strand) [C3P element of apo CIII promoter (-87/-66)]” was tested. Which activity (fold activation) did it give?
Answer: The activity (fold activation) was 7.
